System: Escherichia coli TOP10
Assay: shrunken log2 fold change of peptide-encoding DNA abundance (4.5 h post-induction vs induction); higher = less antimicrobial activity (less host growth inhibition)
Conditions: time post-induction: 4.5 h; library: site-saturation at positions 5, 18, 19, 20
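Note: peptides expressed intracellularly from a pBAD plasmid library in pooled LB shake-flask culture, induced with 0.3% L-arabinose, DNA abundance read by NGS, three biological replicates, DESeq2 with apeglm shrinkage.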

Row | Sequence | shrunken log2 fold change
1 | RRIRNRPPRLPRPRPRPTPIPRP | 0.189
2 | RRIRNRPPRLPRPRPRPNLWPRP | 0.315
3 | RRIRFRPPRLPRPRPRPNCFPRP | -0.193
4 | RRIRTRPPRLPRPRPRPSMHPRP | -0.152
5 | RRIRQRPPRLPRPRPRPIMVPRP | -0.0523
6 | RRIRSRPPRLPRPRPRPALPPRP | 0.26
7 | RRIRDRPPRLPRPRPRPVHTPRP | -0.00587
8 | RRIRDRPPRLPRPRPRPKWKPRP | -0.00871
9 | RRIRNRPPRLPRPRPRPANNPRP | -0.0944
10 | RRIRGRPPRLPRPRPRPICSPRP | 0.122
11 | RRIRIRPPRLPRPRPRPEKIPRP | -0.0431
12 | RRIRKRPPRLPRPRPRPSVEPRP | 0.0133
13 | RRIRWRPPRLPRPRPRPTWLPRP | 0.694
14 | RRIRNRPPRLPRPRPRPDFHPRP | -0.441
15 | RRIRWRPPRLPRPRPRPLPYPRP | -0.192
16 | RRIRWRPPRLPRPRPRPLEIPRP | 0.299
17 | RRIRRRPPRLPRPRPRPFDQPRP | 0.0321
18 | RRIRERPPRLPRPRPRPQHFPRP | 0.131
19 | RRIRLRPPRLPRPRPRPIRAPRP | 0.301
20 | RRIRTRPPRLPRPRPRPGECPRP | -0.258
21 | RRIRMRPPRLPRPRPRPRWTPRP | 0.548
22 | RRIRNRPPRLPRPRPRPTVQPRP | -0.179
23 | RRIRFRPPRLPRPRPRPRGMPRP | 0.2
24 | RRIRARPPRLPRPRPRPGAYPRP | 0.249
25 | RRIRTRPPRLPRPRPRPFSQPRP | -0.0652

Row | Sequence | shrunken log2 fold change
26 | RRIRSRPPRLPRPRPRPWCLPRP | -0.11
27 | RRIRDRPPRLPRPRPRPNNSPRP | -0.422
28 | RRIRFRPPRLPRPRPRPCPAPRP | 1.36
29 | RRIRSRPPRLPRPRPRPRKDPRP | 0.271
30 | RRIRYRPPRLPRPRPRPRGKPRP | 0.158
31 | RRIRLRPPRLPRPRPRPQAHPRP | -0.217
32 | RRIRGRPPRLPRPRPRPISPPRP | -0.0176
33 | RRIRWRPPRLPRPRPRPEPGPRP | 0.43
34 | RRIRHRPPRLPRPRPRPDLQPRP | -0.15
35 | RRIRWRPPRLPRPRPRPFNQPRP | -0.494
36 | RRIRNRPPRLPRPRPRPKPFPRP | -0.104
37 | RRIRYRPPRLPRPRPRPHITPRP | -0.538
38 | RRIRCRPPRLPRPRPRPICWPRP | 0.202
39 | RRIRIRPPRLPRPRPRPEHPPRP | -0.182
40 | RRIRVRPPRLPRPRPRPECVPRP | 0.399
41 | RRIRCRPPRLPRPRPRPFNNPRP | -0.701
42 | RRIRWRPPRLPRPRPRPSAIPRP | -0.201
43 | RRIRERPPRLPRPRPRPQFNPRP | -0.167
44 | RRIRIRPPRLPRPRPRPAARPRP | 0.278
45 | RRIRLRPPRLPRPRPRPIPFPRP | -0.0242
46 | RRIRVRPPRLPRPRPRPHYRPRP | -0.0502
47 | RRIRIRPPRLPRPRPRPQPTPRP | 0.115
48 | RRIRHRPPRLPRPRPRPDACPRP | -0.0498
49 | RRIRQRPPRLPRPRPRPNDKPRP | -0.335
50 | RRIRTRPPRLPRPRPRPWHHPRP | 0.0255

Row | Sequence | shrunken log2 fold change
51 | RRIRQRPPRLPRPRPRPSNQPRP | -0.359
52 | RRIRFRPPRLPRPRPRPTFEPRP | -0.00113
53 | RRIRLRPPRLPRPRPRPSGPPRP | -0.216
54 | RRIRVRPPRLPRPRPRPCKGPRP | -0.117
55 | RRIRVRPPRLPRPRPRPHSFPRP | -0.155
56 | RRIRVRPPRLPRPRPRPNPDPRP | -0.0161
57 | RRIRTRPPRLPRPRPRPHWNPRP | -0.424
58 | RRIRERPPRLPRPRPRPSKEPRP | -0.0565
59 | RRIRLRPPRLPRPRPRPCNIPRP | -0.00101
60 | RRIRERPPRLPRPRPRPQGDPRP | -0.0405
61 | RRIRMRPPRLPRPRPRPASTPRP | 0.323
62 | RRIRDRPPRLPRPRPRPYYGPRP | 0.127
63 | RRIRHRPPRLPRPRPRPSFYPRP | -1.09
64 | RRIRKRPPRLPRPRPRPTQSPRP | 0.441
65 | RRIRYRPPRLPRPRPRPQGTPRP | 0.034
66 | RRIRKRPPRLPRPRPRPQPLPRP | 0.405
67 | RRIRARPPRLPRPRPRPSNFPRP | -0.221
68 | RRIRHRPPRLPRPRPRPMMAPRP | 0.183
69 | RRIRGRPPRLPRPRPRPLWAPRP | 0.681
70 | RRIRLRPPRLPRPRPRPTKSPRP | 0.127
71 | RRIRDRPPRLPRPRPRPMMSPRP | -0.0107
72 | RRIRARPPRLPRPRPRPLWAPRP | 0.589
73 | RRIRYRPPRLPRPRPRPCWSPRP | -0.768
74 | RRIRQRPPRLPRPRPRPHMIPRP | -0.515
75 | RRIRLRPPRLPRPRPRPCEEPRP | -0.0266

Row | Sequence | shrunken log2 fold change
76 | RRIRSRPPRLPRPRPRPALFPRP | 0.069
77 | RRIRLRPPRLPRPRPRPEQWPRP | -0.00018
78 | RRIRIRPPRLPRPRPRPYFCPRP | -1.26
79 | RRIRKRPPRLPRPRPRPWIEPRP | 0.00935
80 | RRIRPRPPRLPRPRPRPLFWPRP | 0.296
81 | RRIRERPPRLPRPRPRPVGRPRP | 0.233
82 | RRIRYRPPRLPRPRPRPSMPPRP | -1.69
83 | RRIRHRPPRLPRPRPRPVKTPRP | -0.164
84 | RRIRARPPRLPRPRPRPPPYPRP | 0.698
85 | RRIRHRPPRLPRPRPRPLWCPRP | -0.22
86 | RRIRNRPPRLPRPRPRPKWDPRP | 0.0992
87 | RRIRMRPPRLPRPRPRPCYEPRP | 0.0712
88 | RRIRDRPPRLPRPRPRPNQKPRP | 0.18
89 | RRIRHRPPRLPRPRPRPSIYPRP | -0.418
90 | RRIRARPPRLPRPRPRPNDHPRP | -0.0473
91 | RRIRFRPPRLPRPRPRPCIQPRP | -0.0483
92 | RRIRWRPPRLPRPRPRPQYEPRP | 0.0857
93 | RRIRNRPPRLPRPRPRPPPGPRP | 0.863
94 | RRIRDRPPRLPRPRPRPCYEPRP | 0.00345
95 | RRIRARPPRLPRPRPRPQMHPRP | 1.05
96 | RRIRIRPPRLPRPRPRPPIKPRP | -0.4
97 | RRIRVRPPRLPRPRPRPIYLPRP | -0.543
98 | RRIRWRPPRLPRPRPRPYSMPRP | -0.314
99 | RRIRWRPPRLPRPRPRPLGEPRP | 0.224
100 | RRIRHRPPRLPRPRPRPHGLPRP | 0.15

Row | Sequence | shrunken log2 fold change
101 | RRIRTRPPRLPRPRPRPFICPRP | -0.292
102 | RRIRCRPPRLPRPRPRPATDPRP | -0.112
103 | RRIRIRPPRLPRPRPRPFKIPRP | -0.144
104 | RRIRDRPPRLPRPRPRPQEKPRP | 0.0105
105 | RRIRSRPPRLPRPRPRPVKFPRP | 0.0903
106 | RRIRGRPPRLPRPRPRPESWPRP | 1.7
107 | RRIRSRPPRLPRPRPRPGWHPRP | 0.234
108 | RRIRQRPPRLPRPRPRPYSIPRP | 0.098
109 | RRIRWRPPRLPRPRPRPTRDPRP | 0.0468
110 | RRIRQRPPRLPRPRPRPMMHPRP | -0.252
111 | RRIRCRPPRLPRPRPRPMSCPRP | -0.0327
112 | RRIRKRPPRLPRPRPRPVMCPRP | 0.0989
113 | RRIRGRPPRLPRPRPRPIKAPRP | 0.024
114 | RRIRARPPRLPRPRPRPCEMPRP | 0.345
115 | RRIRRRPPRLPRPRPRPMVAPRP | 0.363
116 | RRIRCRPPRLPRPRPRPVFAPRP | -0.224
117 | RRIRMRPPRLPRPRPRPGICPRP | 0.507
118 | RRIRPRPPRLPRPRPRPSTYPRP | -0.415
119 | RRIRDRPPRLPRPRPRPYNIPRP | -0.529
120 | RRIRWRPPRLPRPRPRPCLRPRP | 0.0809
121 | RRIRCRPPRLPRPRPRPAKEPRP | -0.0092
122 | RRIRYRPPRLPRPRPRPEGFPRP | -0.487
123 | RRIRARPPRLPRPRPRPHRWPRP | 0.0671
124 | RRIRGRPPRLPRPRPRPKYEPRP | 0.56
125 | RRIRERPPRLPRPRPRPRKWPRP | 0.316

Row | Sequence | shrunken log2 fold change
126 | RRIRWRPPRLPRPRPRPNSRPRP | 0.0524
127 | RRIRRRPPRLPRPRPRPTLRPRP | 0.712
128 | RRIRYRPPRLPRPRPRPWKPPRP | -0.2
129 | RRIRRRPPRLPRPRPRPLIFPRP | -0.00389
130 | RRIRVRPPRLPRPRPRPMWMPRP | 0.109
131 | RRIRHRPPRLPRPRPRPAHKPRP | -0.0386
132 | RRIRMRPPRLPRPRPRPLQEPRP | 2.68
133 | RRIRTRPPRLPRPRPRPLQCPRP | 0.174
134 | RRIRWRPPRLPRPRPRPCCFPRP | -0.0922
135 | RRIRLRPPRLPRPRPRPYKVPRP | -0.756
136 | RRIRLRPPRLPRPRPRPADSPRP | -0.182
137 | RRIRLRPPRLPRPRPRPCRIPRP | -0.0656
138 | RRIRNRPPRLPRPRPRPNTHPRP | -0.584
139 | RRIRMRPPRLPRPRPRPNGDPRP | 0.297
140 | RRIRIRPPRLPRPRPRPGKSPRP | -0.0715
141 | RRIRGRPPRLPRPRPRPVCLPRP | 1.1
142 | RRIRIRPPRLPRPRPRPARWPRP | 0.412
143 | RRIRERPPRLPRPRPRPVCRPRP | -0.0104
144 | RRIRWRPPRLPRPRPRPQNAPRP | -0.182
145 | RRIRSRPPRLPRPRPRPFSSPRP | -0.113
146 | RRIRKRPPRLPRPRPRPRMAPRP | 0.818
147 | RRIRSRPPRLPRPRPRPPQNPRP | 0.294
148 | RRIRIRPPRLPRPRPRPARGPRP | 0.624
149 | RRIRIRPPRLPRPRPRPDPVPRP | -0.0546
150 | RRIRCRPPRLPRPRPRPYTPPRP | -1.23
